Data published in article PMC6358605, “MANF antagonizes nucleotide exchange by the endoplasmic reticulum chaperone BiP” (Nature Communications, 2019).

How the values were obtained:
[1] = target: T1, BiP NBD (28–413) (Chinese hamster, UniProt G3I8R9 28-413); assay: BLI; sequential dipping: streptavidin biosensors loaded with biotinylated MANF, SAP or SAPLIP, dipped in BiP SBD, buffer, BiP NBD with 2 mM ATP, 2 mM ATP, BiP NBD with 2 mM ADP, 2 mM ADP; HKMT buffer; settings: both partners purified
T1 construct: UK2039 is named for the crystals and the MABA-ADP assay; also called UK2039; source: E. coli M15, purified (nickel chelating, tag cleavage, anion exchange, SEC); not shown: His6-Smt3, N-terminal, cleaved

[2] = target: the molecule itself; assay: crystal structure; lidless BiP^V461F (apo) crystals from a co-crystallisation mix with MANF or SAP; only BiP^V461F present in the crystal; contacts between protomers of the lattice

T1 sequence (G3I8R9 28-413): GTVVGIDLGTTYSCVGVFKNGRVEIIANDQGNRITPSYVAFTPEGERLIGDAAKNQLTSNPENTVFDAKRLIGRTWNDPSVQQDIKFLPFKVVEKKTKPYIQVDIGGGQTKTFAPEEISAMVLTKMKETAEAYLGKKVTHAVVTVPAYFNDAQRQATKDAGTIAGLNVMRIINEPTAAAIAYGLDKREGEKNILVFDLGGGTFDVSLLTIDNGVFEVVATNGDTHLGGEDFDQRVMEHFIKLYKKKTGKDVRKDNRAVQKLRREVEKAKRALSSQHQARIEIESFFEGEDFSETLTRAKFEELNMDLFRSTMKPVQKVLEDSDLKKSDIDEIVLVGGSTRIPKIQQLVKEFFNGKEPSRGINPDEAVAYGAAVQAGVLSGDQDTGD

Row | binding result [1] | Binder | binding result [2]
1 | binds | biotinylated AviTag-MANF^22–179 (natural protein, mouse, UniProt Q9CXI5 22-179, looked up, biotin (on the AviTag, by E. coli BirA), mesencephalic astrocyte-derived neurotrophic factor (MANF), mouse, residues 22-179; Ligand on streptavidin BLI sensors; also called mMANF; UK1987; source: E. coli Origami B (DE3), purified (GSTrap, TEV cleavage), biotinylated in vitro with BirA; not shown: GST, N-terminal, cleaved; AviTag, N-terminal, kept) LRPGDCEVCISYLGRFYQDLKDRDVTFSPATIEEELIKFCREARGKENRLCYYIGATDDAATKIINEVSKPLAHHIPVEKICEKLKKKDSQICELKYDKQIDLSTVDLKKLRVKELKKILDDWGEMCKGCAEKSDYIRKINELMPKYAPKAASARTDL | 
2 |  | lidless Chinese hamster BiP^V461F (28–549) (domain or fragment, BiP, Chinese hamster, residues 28-549 (C-terminal alpha-helical lid truncated), V461F; also called BiP^V461F (apo); UK2121; source: E. coli M15, purified (nickel chelating, anion exchange, SEC)) not shown | binds
3 | binds | biotinylated AviTag-SAP^119–179 (domain or fragment, mouse, UniProt Q9CXI5 119-179, looked up, also: biotin on AviTag lysine (tag not in chain), C-terminal SAP (SAF-A/B, Acinus, and PIAS) domain of MANF, mouse, residues 119-179; also called SAP domain of MANF; UK2005; source: E. coli Origami B (DE3), purified (GSTrap, TEV cleavage), biotinylated in vitro with BirA; not shown: GST, N-terminal, cleaved; AviTag, N-terminal, kept) DKQIDLSTVDLKKLRVKELKKILDDWGEMCKGCAEKSDYIRKINELMPKYAPKAASARTDL | 
